Source: article PMC3486911 (PLoS Pathogens, 2012)
Values joined by “and” are separate entries in the source; they are usually repeats but may differ in a detail not shown here. Equal entries are not always repeated. Where two headings read alike, the source gives them in different places.

How the values were obtained:
Experiment in all cases: SPR
[1] = biological target: V1 fHbp Ile196-Ala (Neisseria meningitidis)
[2] = biological target: V2 fHbp Leu199 mutant (to Ala) (Neisseria meningitidis)
[3] = biological target: V1 fHbp Phe194-Ala (Neisseria meningitidis)
[4] = biological target: V2 fHbp Val311 mutant (to Ala) (Neisseria meningitidis)
[5] = biological target: V2 fHbp Ser302 mutant (to Ala) (Neisseria meningitidis)
[6] = biological target: V2 fHbp His203 mutant (to Ala) (Neisseria meningitidis)
[7] = biological target: V3 fHbp (V3.p28), wild type (Neisseria meningitidis) (UniProt E6MV22)
[8] = biological target: V2 fHbp Lys268 mutant (to Ala) (Neisseria meningitidis)
[9] = biological target: V2 fHbp Gln191 mutant (to Ala) (Neisseria meningitidis)
[10] = biological target: V2 fHbp Thr304 mutant (to Ala) (Neisseria meningitidis)
[11] = biological target: V2 fHbp Val196 mutant (to Ala) (Neisseria meningitidis)
[12] = biological target: V2 fHbp Lys264 mutant (to Ala) (Neisseria meningitidis)
[13] = biological target: V1 fHbp (V1.p1), wild type (Neisseria meningitidis) (UniProt Q9JXV4)
[14] = biological target: V1 fHbp Lys191-Ala (Neisseria meningitidis)
[15] = biological target: V1 fHbp Arg195-Ala (Neisseria meningitidis)
[16] = biological target: V1 fHbp Gln193-Ala (Neisseria meningitidis)
[17] = biological target: V2 fHbp Glu262 mutant (to Ala) (Neisseria meningitidis)
[18] = biological target: V1 fHbp His203-Ala (Neisseria meningitidis)
[19] = biological target: V2 fHbp Leu199 mutant (to Ala) (Neisseria meningitidis); remark: listed apart in the source
[20] = biological target: V2 fHbp Val311 mutant (to Ala) (Neisseria meningitidis); remark: listed apart in the source
[21] = biological target: V2 fHbp Ser302 mutant (to Ala) (Neisseria meningitidis); remark: listed apart in the source
[22] = biological target: V2 fHbp His203 mutant (to Ala) (Neisseria meningitidis); remark: listed apart in the source
[23] = biological target: V3 fHbp (V3.p28), wild type (Neisseria meningitidis) (UniProt E6MV22); remark: listed apart in the source
[24] = biological target: V2 fHbp Lys268 mutant (to Ala) (Neisseria meningitidis); remark: listed apart in the source
[25] = biological target: V2 fHbp Gln191 mutant (to Ala) (Neisseria meningitidis); remark: listed apart in the source
[26] = biological target: V2 fHbp Thr304 mutant (to Ala) (Neisseria meningitidis); remark: listed apart in the source
[27] = biological target: V2 fHbp Val196 mutant (to Ala) (Neisseria meningitidis); remark: listed apart in the source
[28] = biological target: V2 fHbp Lys264 mutant (to Ala) (Neisseria meningitidis); remark: listed apart in the source
[29] = biological target: V1 fHbp (V1.p1), wild type (Neisseria meningitidis) (UniProt Q9JXV4); remark: listed apart in the source
[30] = biological target: V2 fHbp (V2.p21), wild type (Neisseria meningitidis) (UniProt E6MV22)
[31] = biological target: V2 fHbp Glu262 mutant (to Ala) (Neisseria meningitidis); remark: listed apart in the source
[32] = biological target: V3 fHbp Gln87 mutant (to Ala) (Neisseria meningitidis) (UniProt E6MV22)

## human factor H CCP 6 and 7 (fH67) (domain or fragment)
[1]
  Kd: 1.4 nM and 1.6 nM
[2]
  Kd: 16 nM and 15 nM
[3]
  Kd: 6 nM and 6.3 nM
[4]
  Kd: 7 nM and 7.9 nM
[5]
  Kd: 3.7 nM and 4.4 nM
[6]
  Kd: 2.5 nM and 2.8 nM
[7]
  Kd: 2.8 nM and 3 nM and 2.9 nM
[8]
  Kd: 2.3 nM and 2.2 nM
[9]
  Kd: 2.7 nM and 2.5 nM
[10]
  Kd: 7.9 nM and 8.5 nM
[11]
  Kd: 32 nM and 14 nM
[12]
  Kd: 9.5 nM and 8.6 nM
[13]
  Kd: 2.7 nM and 3.1 nM and 2.6 nM
[14]
  Kd: 4.5 nM and 3.8 nM
[15]
  Kd: 360 nM and 75 nM
[16]
  Kd: 5.3 nM and 4.2 nM
[17]
  Kd: 5.6 nM and 5 nM
[18]
  Kd: 1.4 nM and 2 nM
[19]
  Kd: 15.5 nM
[20]
  Kd: 7.45 nM
[21]
  Kd: 4.05 nM
[22]
  Kd: 2.65 nM
[23]
  Kd: 2.95 nM
[24]
  Kd: 2.25 nM
[25]
  Kd: 2.6 nM
[26]
  Kd: 8.2 nM
[27]
  Kd: 23 nM
[28]
  Kd: 9.05 nM
[29]
  Kd: 2.85 nM
[30]
  Kd: 2.15 nM and 1.85 nM
[31]
  Kd: 5.3 nM
[32]
  Kd: 0.715 nM
